Experimental data taken from paper PMC9164447.

Molecular target: SARS-CoV-2 nucleocapsid N protein wild type (SARS-CoV-2) (UniProt P0DTC9)
Experiment: fluorescence anisotropy

Work on NNNNNNNNNN [10-nt degenerate RNA] yielded a Kd of 28 nM.
